# Measured values from PMC5571939, “The nature of the Syntaxin4 C-terminus affects Munc18c-supported SNARE assembly” (PLoS ONE, 2017).
# T1: HL-Munc18c (mouse, UniProt Q60770 1-592)
# T1 construct: Munc18c (Munc18-3), mouse; The linker is said to have 53 amino acids; also called Munc18c with N-terminal His6-tag and long linker; source: E. coli, purified as described previously [39]; not shown: His6 with long linker ([residues removed]), N-terminal, kept
# T1 sequence (looked up): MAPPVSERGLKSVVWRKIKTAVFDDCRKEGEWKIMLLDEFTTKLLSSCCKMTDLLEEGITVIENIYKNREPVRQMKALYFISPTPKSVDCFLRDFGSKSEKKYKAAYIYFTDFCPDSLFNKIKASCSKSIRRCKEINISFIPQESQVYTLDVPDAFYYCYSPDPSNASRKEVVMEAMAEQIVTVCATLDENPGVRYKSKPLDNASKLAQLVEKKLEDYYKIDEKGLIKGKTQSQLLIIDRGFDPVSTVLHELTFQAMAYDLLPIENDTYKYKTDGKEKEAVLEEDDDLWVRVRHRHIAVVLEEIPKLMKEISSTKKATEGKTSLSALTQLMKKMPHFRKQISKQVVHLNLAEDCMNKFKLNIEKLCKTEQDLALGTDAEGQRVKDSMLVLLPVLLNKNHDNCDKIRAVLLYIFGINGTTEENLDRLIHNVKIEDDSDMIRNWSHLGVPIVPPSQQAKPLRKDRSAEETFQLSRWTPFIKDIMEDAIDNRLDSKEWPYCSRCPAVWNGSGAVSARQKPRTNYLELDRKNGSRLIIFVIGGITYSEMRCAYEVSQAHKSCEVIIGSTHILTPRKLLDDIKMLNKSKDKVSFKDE
# How the values were obtained:
# Conditions in all cases: both partners purified
# HL-Munc18c = molecular target: T1, HL-Munc18c; experiment: pull-down; HL-Munc18c (20 μg, 1.4 μM) immobilised on TALON Co2+ beads; de-tagged Sx4 proteins (50 μg) added for 4 h (legend: 6 h), washed; binding buffer with 0.1% Triton X-100; SDS-PAGE, Coomassie
# Sx4_(1-275)-T4L-His [1] = molecular target: T2, Sx4_(1-275)-T4L-His (rat | phage T4 (from the name T4 …, UniProt Q08850 1-275; P00720 1-164, C141S); experiment: BLI; C-terminally His-tagged Sx4 constructs loaded on Ni-NTA biosensors; de-tagged Munc18c 10/25–400 nM in solution; 25 mM Tris-Cl pH 7.5, 150 mM NaCl, 10 mM imidazole, 0.1% TX-100, 10% glycerol, 2 mM βME; BLItz; 1:1 fit
# T2 construct: T4 lysozyme (T4L), amino acids 1-164, synthetic gene (GeneArt); Sx4 ligated between NdeI and HindIII, T4L between HindIII and XhoI of pET20b; also called Sx4 cytoplasmic domain with C-terminal T4-lysozyme fusion and His6; source: E. coli, purified; not shown: His6, C-terminal, kept
# Sx4_(1-275)-T4L-His [2] = molecular target: T2, Sx4_(1-275)-T4L-His; experiment: ITC; Sx4-T4L-His construct (200–250 μM) titrated into HMunc18c (20–40 μM) in the cell; 298 K; 25 mM HEPES pH 8.0, 200 mM NaCl, 10% glycerol, 2 mM β-ME; single site model
# [3] = molecular target: T3, Alexa488-labeled Sx4_(1-275)-T4L-His (native C141) (rat | phage T4 (from the name T4 …, UniProt Q08850 1-275)); P00720 1-164, Alexa Fluor 488 C5 maleimide on cysteine (native C141 rather than C141S)); experiment: fluorescence polarisation; fluorescence anisotropy kinetics, both in solution: Alexa488-labeled Sx4 (50 nM) with HMunc18c at 100–2500 nM; 25°C; 25 mM HEPES pH 8.0, 200 mM NaCl, 1 mM TCEP, 2% glycerol; global 1:1 fit (Dynafit 4.0)
# T3 construct: T4 lysozyme (T4L), amino acids 1-164, synthetic gene (GeneArt); Degree of labeling greater than 90%; not shown: His6, C-terminal, kept
binder,measurement,setting,value
"Sx4_(1-298)-TMD (de-tagged, in detergent micelles) (natural protein, mouse, UniProt P70452 1-298, looked up, Syntaxin4 (Sx4) with its C-terminal transmembrane domain, mouse, amino acids 1-298, synthetic gene (GenScript); Mouse, whereas the soluble Sx4 constructs are rat; also called full-length Sx4; HT-Sx4-TMD after TEV cleavage; source: E. coli Lemo21 (DE3), purified in DDM (TALON Co2+ IMAC, TEV cleavage, reverse IMAC); not shown: His6, N-terminal, cleaved) MRDRTHELRQGDNISDDEDEVRVALVVHSGAARLGSPDDEFFQKVQTIRQTMAKLESKVRELEKQQVTILATPLPEESMKQGLQNLREEIKQLGREVRAQLKAIEPQKEEADENYNSVNTRMKKTQHGVLSQQFVELINKCNSMQSEYREKNVERIRRQLKITNAGMVSDEELEQMLDSGQSEVFVSNILKDTQVTRQALNEISARHSEIQQLERSIRELHEIFTFLATEVEMQGEMINRIEKNILSSADYVERGQEHVKIALENQKKARKKKVMIAICVSVTVLILAVIIGITITVG",binding result,HL-Munc18c,binds
"Munc18c (de-tagged) (natural protein, mouse, UniProt Q60770 1-592, looked up, Munc18c (Munc18-3), mouse; also called detagged Munc18c; HTMunc18c after TEV cleavage; source: E. coli, purified (IMAC, TEV cleavage, reverse IMAC, SEC); not shown: His6, N-terminal, cleaved) MAPPVSERGLKSVVWRKIKTAVFDDCRKEGEWKIMLLDEFTTKLLSSCCKMTDLLEEGITVIENIYKNREPVRQMKALYFISPTPKSVDCFLRDFGSKSEKKYKAAYIYFTDFCPDSLFNKIKASCSKSIRRCKEINISFIPQESQVYTLDVPDAFYYCYSPDPSNASRKEVVMEAMAEQIVTVCATLDENPGVRYKSKPLDNASKLAQLVEKKLEDYYKIDEKGLIKGKTQSQLLIIDRGFDPVSTVLHELTFQAMAYDLLPIENDTYKYKTDGKEKEAVLEEDDDLWVRVRHRHIAVVLEEIPKLMKEISSTKKATEGKTSLSALTQLMKKMPHFRKQISKQVVHLNLAEDCMNKFKLNIEKLCKTEQDLALGTDAEGQRVKDSMLVLLPVLLNKNHDNCDKIRAVLLYIFGINGTTEENLDRLIHNVKIEDDSDMIRNWSHLGVPIVPPSQQAKPLRKDRSAEETFQLSRWTPFIKDIMEDAIDNRLDSKEWPYCSRCPAVWNGSGAVSARQKPRTNYLELDRKNGSRLIIFVIGGITYSEMRCAYEVSQAHKSCEVIIGSTHILTPRKLLDDIKMLNKSKDKVSFKDE",Kd,Sx4_(1-275)-T4L-His [1],20 nM
same,koff,Sx4_(1-275)-T4L-His [1],0.0078 s⁻¹
same,kon,Sx4_(1-275)-T4L-His [1],430000 M⁻¹ s⁻¹
"HMunc18c (natural protein, mouse, UniProt Q60770 1-592, looked up, Munc18c (Munc18-3), mouse; also called Munc18c with an N-terminal His6-tag; source: E. coli, purified as described previously [39]; not shown: His6, N-terminal, kept) MAPPVSERGLKSVVWRKIKTAVFDDCRKEGEWKIMLLDEFTTKLLSSCCKMTDLLEEGITVIENIYKNREPVRQMKALYFISPTPKSVDCFLRDFGSKSEKKYKAAYIYFTDFCPDSLFNKIKASCSKSIRRCKEINISFIPQESQVYTLDVPDAFYYCYSPDPSNASRKEVVMEAMAEQIVTVCATLDENPGVRYKSKPLDNASKLAQLVEKKLEDYYKIDEKGLIKGKTQSQLLIIDRGFDPVSTVLHELTFQAMAYDLLPIENDTYKYKTDGKEKEAVLEEDDDLWVRVRHRHIAVVLEEIPKLMKEISSTKKATEGKTSLSALTQLMKKMPHFRKQISKQVVHLNLAEDCMNKFKLNIEKLCKTEQDLALGTDAEGQRVKDSMLVLLPVLLNKNHDNCDKIRAVLLYIFGINGTTEENLDRLIHNVKIEDDSDMIRNWSHLGVPIVPPSQQAKPLRKDRSAEETFQLSRWTPFIKDIMEDAIDNRLDSKEWPYCSRCPAVWNGSGAVSARQKPRTNYLELDRKNGSRLIIFVIGGITYSEMRCAYEVSQAHKSCEVIIGSTHILTPRKLLDDIKMLNKSKDKVSFKDE",Kd,Sx4_(1-275)-T4L-His [2],100 nM
same,Kd,[3],148 nM
same,koff,[3],7.5e-05 s⁻¹
same,kon,[3],502 M⁻¹ s⁻¹
